Columns and labels:
[1] = molecular target: membrane-bound PD-L1 on MDA-MB-231 cells (Homo sapiens?) (UniProt Q9NZQ7); assay: cell retention assay; settings: aptamer on slide, 5' amine (NH2), BLI: 1x PBS pH 7.4, aptamers 3-12 uM, 300 s association, 600 s dissociation, temperature not stated, EMSA: TBE-PAGE, binding buffer composition not given
[2] = molecular target: membrane-bound PD-L1 on MDA-MB-231 cells, PNGase F treated (UniProt Q9NZQ7); assay: cell retention assay; settings: 5' amine (NH2), BLI: 1x PBS pH 7.4, aptamers 3-12 uM, 300 s association, 600 s dissociation, temperature not stated, EMSA: TBE-PAGE, binding buffer composition not given
Sequence of membrane-bound PD-L1 on MDA-MB-231 cells, PNGase F treated (Q9NZQ7 19-290): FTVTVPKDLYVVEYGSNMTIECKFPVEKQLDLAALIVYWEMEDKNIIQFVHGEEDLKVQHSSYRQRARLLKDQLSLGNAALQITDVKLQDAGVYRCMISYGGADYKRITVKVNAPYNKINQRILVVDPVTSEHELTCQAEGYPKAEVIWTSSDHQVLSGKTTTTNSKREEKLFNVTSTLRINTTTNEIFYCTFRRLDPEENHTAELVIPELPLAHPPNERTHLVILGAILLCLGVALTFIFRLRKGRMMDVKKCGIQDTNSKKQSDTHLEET

Sequence of membrane-bound PD-L1 on MDA-MB-231 cells (Homo sapiens?) (Q9NZQ7 19-290): as above

ATAGTCCCTGGCGTGCTTGGTCGGCAGAGCAGGTACGGTGTCA [Apt45]
binding signal (% cells retained) ([1]; negligible adhesion): 5.9 | binding signal (% cells retained) [2]: 46

GTACCTGCTCTCCGCGCGAAGCACGCCAGGGACT [Tr-Apt13]
binding signal (% cells retained) [1]: 86.8

TGACACCGTACCTGCTCTCCGCGCGAAGCACGCCAGGGACTAT [Apt13]
binding signal (% cells retained) ([1]; comparison with Apt45): 72.9 | binding signal (% cells retained) ([1]; comparison with Tr-Apt13): 62.8
